The target in this assay is T1, beta-catenin (Homo sapiens, UniProt P35222).
T1 construct: made in house; host or cells: E. coli BL21 (DE3) pLysS
T1 sequence (P35222 134-665): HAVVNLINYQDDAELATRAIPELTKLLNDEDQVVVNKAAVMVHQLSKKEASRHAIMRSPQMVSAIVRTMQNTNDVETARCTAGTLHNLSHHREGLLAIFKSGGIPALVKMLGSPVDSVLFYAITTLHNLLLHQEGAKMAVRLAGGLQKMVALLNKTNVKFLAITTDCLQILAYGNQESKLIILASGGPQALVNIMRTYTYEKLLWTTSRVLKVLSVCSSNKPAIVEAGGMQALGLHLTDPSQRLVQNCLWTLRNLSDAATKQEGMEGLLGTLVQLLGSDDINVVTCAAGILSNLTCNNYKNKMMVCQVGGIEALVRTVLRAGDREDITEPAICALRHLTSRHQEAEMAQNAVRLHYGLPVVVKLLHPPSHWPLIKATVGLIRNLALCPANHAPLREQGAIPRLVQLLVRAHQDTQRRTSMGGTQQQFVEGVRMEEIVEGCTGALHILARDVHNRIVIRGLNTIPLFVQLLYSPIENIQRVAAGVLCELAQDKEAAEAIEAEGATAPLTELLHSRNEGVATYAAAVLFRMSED
Nature of the assay: Phage Library Screening with NGS, beta-catenin. Conditions: for Target Concentration 10 (phage screen NGS readout): beta-catenin target concentration 10; for Target Concentration 10 (phage screen NGS readout) / Target Concentration 30 (phage screen NGS readout) / Target Concentration 100 (phage screen NGS readout) / Target Concentration 300 (phage screen NGS readout): no competitor; for Target Concentration 30 (phage screen NGS readout): beta-catenin target concentration 30; for Target Concentration 100 (phage screen NGS readout): beta-catenin target concentration 100; for Target Concentration 300 (phage screen NGS readout): beta-catenin target concentration 300; for Target Concentration 1000 (phage screen NGS readout): beta-catenin target concentration 1000. The format is binding.

On to DPAMVTCYEAAYVCQYF, for which the “Target Concentration 10 (phage screen NGS readout)” value came to 0, the “Target Concentration 30 (phage screen NGS readout)” value stood at 0, the “Target Concentration 100 (phage screen NGS readout)” value was 0 and the “Target Concentration 300 (phage screen NGS readout)” value is listed as 0. For the same sequence, the “Target Concentration BLANK (phage screen NGS readout)” value (“Target Concentration BLANK” below) (first column) was found to be 0. The “Target Concentration BLANK” value (fourth column) is on record as 0. Besides, the “Target Concentration BLANK” value (second column) is given as 0. Also, the “Target Concentration BLANK” value (third column) turned out to be 0. Besides, the “Target Concentration 1000 (phage screen NGS readout)” value (first 1000 column) is 7. In addition, the “Target Concentration 1000 (phage screen NGS readout)” value (second 1000 column) is listed as 0.
In the case of DPAELACEWAAIHCELV, the “Target Concentration 10 (phage screen NGS readout)” value was determined as 0, the “Target Concentration 30 (phage screen NGS readout)” value turned out to be 2, the “Target Concentration 100 (phage screen NGS readout)” value is 41 and the “Target Concentration 300 (phage screen NGS readout)” value is reported as 94. The “Target Concentration BLANK” value (first column) was 0. The “Target Concentration BLANK” value (fourth column) was 0. Also, under “second column”, the “Target Concentration BLANK” value came out at 0. The “Target Concentration BLANK” value (third column) is recorded as 0. For the same sequence, the “Target Concentration 1000 (phage screen NGS readout)” value (first 1000 column) amounted to 69. Also, the “Target Concentration 1000 (phage screen NGS readout)” value (second 1000 column) came out at 75.
Regarding DPAMSQCNWAAVHCQLL, the “Target Concentration 10 (phage screen NGS readout)” value is given as 6, the “Target Concentration 30 (phage screen NGS readout)” value was found to be 6, the “Target Concentration 100 (phage screen NGS readout)” value turned out to be 6 and the “Target Concentration 300 (phage screen NGS readout)” value turned out to be 13. Moreover, where the note is “first column”, the “Target Concentration BLANK” value was determined as 0. The “Target Concentration BLANK” value (fourth column) stood at 0. Where the note is “second column”, the “Target Concentration BLANK” value stood at 0. Besides, the “Target Concentration BLANK” value (third column) came out at 0. The “Target Concentration 1000 (phage screen NGS readout)” value (first 1000 column) stood at 15. In addition, the “Target Concentration 1000 (phage screen NGS readout)” value (second 1000 column) is reported as 23.
For the sequence DPAIIRCYEAAFYCQNY, the “Target Concentration 10 (phage screen NGS readout)” value stood at 0, the “Target Concentration 30 (phage screen NGS readout)” value turned out to be 3, the “Target Concentration 100 (phage screen NGS readout)” value came to 10 and the “Target Concentration 300 (phage screen NGS readout)” value is 67. The “Target Concentration BLANK” value (first column) turned out to be 0. Moreover, the “Target Concentration BLANK” value (fourth column) amounted to 0. Besides, the “Target Concentration BLANK” value (second column) is 0. Also, the “Target Concentration BLANK” value (third column) was 1. The “Target Concentration 1000 (phage screen NGS readout)” value (first 1000 column) is reported as 93. In addition, under “second 1000 column”, the “Target Concentration 1000 (phage screen NGS readout)” value is given as 94.
For the sequence DPAVVECYEAAYTCQYI, the “Target Concentration 10 (phage screen NGS readout)” value stood at 0, the “Target Concentration 30 (phage screen NGS readout)” value is 0, the “Target Concentration 100 (phage screen NGS readout)” value came to 0 and the “Target Concentration 300 (phage screen NGS readout)” value is recorded as 0. Besides, where the note is “first column”, the “Target Concentration BLANK” value is listed as 0. For the same sequence, the “Target Concentration BLANK” value (fourth column) is listed as 0. For the same sequence, the “Target Concentration BLANK” value (second column) amounted to 0. In addition, the “Target Concentration BLANK” value (third column) is 0. Moreover, for the setting “first 1000 column”, the “Target Concentration 1000 (phage screen NGS readout)” value is reported as 0. Moreover, the “Target Concentration 1000 (phage screen NGS readout)” value (second 1000 column) came to 13.
On to DPAILECHVAALDCQMW, for which the “Target Concentration 10 (phage screen NGS readout)” value is 0, the “Target Concentration 30 (phage screen NGS readout)” value was determined as 2, the “Target Concentration 100 (phage screen NGS readout)” value is recorded as 40 and the “Target Concentration 300 (phage screen NGS readout)” value is 55. Also, under “first column”, the “Target Concentration BLANK” value stood at 0. For the same sequence, for the setting “fourth column”, the “Target Concentration BLANK” value is reported as 0. The “Target Concentration BLANK” value (second column) is reported as 2. For the same sequence, the “Target Concentration BLANK” value (third column) is listed as 0. For the same sequence, under “first 1000 column”, the “Target Concentration 1000 (phage screen NGS readout)” value came to 98. Also, under “second 1000 column”, the “Target Concentration 1000 (phage screen NGS readout)” value stood at 81.
For DPAVIQCYQAAFHCDYQ, the “Target Concentration 10 (phage screen NGS readout)” value was 0, the “Target Concentration 30 (phage screen NGS readout)” value worked out at 0, the “Target Concentration 100 (phage screen NGS readout)” value worked out at 0 and the “Target Concentration 300 (phage screen NGS readout)” value was 13. Also, the “Target Concentration BLANK” value (first column) was found to be 0. Also, for the setting “fourth column”, the “Target Concentration BLANK” value was found to be 0. Besides, the “Target Concentration BLANK” value (second column) was 0. The “Target Concentration BLANK” value (third column) turned out to be 3. For the same sequence, the “Target Concentration 1000 (phage screen NGS readout)” value (first 1000 column) turned out to be 12. The “Target Concentration 1000 (phage screen NGS readout)” value (second 1000 column) turned out to be 30.
For DPAHWHCEHAALLCASV, the “Target Concentration 10 (phage screen NGS readout)” value is reported as 2, the “Target Concentration 30 (phage screen NGS readout)” value was 15, the “Target Concentration 100 (phage screen NGS readout)” value came out at 60 and the “Target Concentration 300 (phage screen NGS readout)” value amounted to 231. Also, the “Target Concentration BLANK” value (first column) amounted to 1. Where the note is “fourth column”, the “Target Concentration BLANK” value was 0. Where the note is “second column”, the “Target Concentration BLANK” value is 0. The “Target Concentration BLANK” value (third column) is recorded as 0. For the same sequence, where the note is “first 1000 column”, the “Target Concentration 1000 (phage screen NGS readout)” value amounted to 177. In addition, the “Target Concentration 1000 (phage screen NGS readout)” value (second 1000 column) was 234.
As for DPAVDECIIAAHICHIW, the “Target Concentration 10 (phage screen NGS readout)” value is on record as 0, the “Target Concentration 30 (phage screen NGS readout)” value came to 4, the “Target Concentration 100 (phage screen NGS readout)” value is recorded as 21 and the “Target Concentration 300 (phage screen NGS readout)” value turned out to be 44. Also, the “Target Concentration BLANK” value (first column) is reported as 0. In addition, for the setting “fourth column”, the “Target Concentration BLANK” value is on record as 0. In addition, the “Target Concentration BLANK” value (second column) is on record as 0. The “Target Concentration BLANK” value (third column) was found to be 0. Also, for the setting “first 1000 column”, the “Target Concentration 1000 (phage screen NGS readout)” value turned out to be 31. Also, the “Target Concentration 1000 (phage screen NGS readout)” value (second 1000 column) was determined as 66.
On to DPAILQCYEAAFSCHYQ, for which the “Target Concentration 10 (phage screen NGS readout)” value is reported as 0, the “Target Concentration 30 (phage screen NGS readout)” value was 9, the “Target Concentration 100 (phage screen NGS readout)” value was 40 and the “Target Concentration 300 (phage screen NGS readout)” value is recorded as 54. Moreover, the “Target Concentration BLANK” value (first column) is 0. Moreover, the “Target Concentration BLANK” value (fourth column) was determined as 0. Further, the “Target Concentration BLANK” value (second column) stood at 0. Also, the “Target Concentration BLANK” value (third column) is 0. Further, the “Target Concentration 1000 (phage screen NGS readout)” value (first 1000 column) was 39. Further, the “Target Concentration 1000 (phage screen NGS readout)” value (second 1000 column) was found to be 42.
As to DPANVECEWAAIHCSLV, the “Target Concentration 10 (phage screen NGS readout)” value is given as 13, the “Target Concentration 30 (phage screen NGS readout)” value was found to be 2, the “Target Concentration 100 (phage screen NGS readout)” value came out at 19 and the “Target Concentration 300 (phage screen NGS readout)” value is on record as 158. For the same sequence, for the setting “first column”, the “Target Concentration BLANK” value came out at 0. The “Target Concentration BLANK” value (fourth column) is 0. Moreover, the “Target Concentration BLANK” value (second column) worked out at 0. For the same sequence, for the setting “third column”, the “Target Concentration BLANK” value is on record as 0. For the same sequence, the “Target Concentration 1000 (phage screen NGS readout)” value (first 1000 column) is listed as 164. In addition, where the note is “second 1000 column”, the “Target Concentration 1000 (phage screen NGS readout)” value stood at 187.
For DPAHLMCHYAAWDCRDE, the “Target Concentration 10 (phage screen NGS readout)” value was 0, the “Target Concentration 30 (phage screen NGS readout)” value was found to be 0, the “Target Concentration 100 (phage screen NGS readout)” value is 11 and the “Target Concentration 300 (phage screen NGS readout)” value is on record as 13. The “Target Concentration BLANK” value (first column) was found to be 0. For the setting “fourth column”, the “Target Concentration BLANK” value stood at 0. Further, the “Target Concentration BLANK” value (second column) is given as 0. In addition, the “Target Concentration BLANK” value (third column) came to 0. In addition, the “Target Concentration 1000 (phage screen NGS readout)” value (first 1000 column) worked out at 12. Also, the “Target Concentration 1000 (phage screen NGS readout)” value (second 1000 column) is reported as 23.

The values above are taken from patent US20240376151A1, “STAPLED PEPTIDES AND METHODS THEREOF” (FOG PHARMACEUTICALS, INC., priority 2022, published 2024).
